Source: patent publication US20230190922A1

Molecular target: human 4-1BB receptor (h4-1-BB) expressed on a genetically engineered Jurkat T cell line (4-1BB Bioassay, Promega) (human) (UniProt Q07011)
Assay: cell-based or functional assay
Conditions: scale: relative luciferase expression

Chain of human 4-1BB receptor (h4-1-BB) expressed on a genetically engineered Jurkat T cell line (4-1BB Bioassay, Promega) (human) (Q07011 24-255, change not shown): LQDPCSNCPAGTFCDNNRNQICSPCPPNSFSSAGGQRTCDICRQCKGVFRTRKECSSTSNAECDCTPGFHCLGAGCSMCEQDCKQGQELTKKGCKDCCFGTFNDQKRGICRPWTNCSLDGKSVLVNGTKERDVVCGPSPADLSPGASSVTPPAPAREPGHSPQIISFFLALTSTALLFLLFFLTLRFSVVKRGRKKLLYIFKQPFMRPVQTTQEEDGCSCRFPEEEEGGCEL

Q: With “His-tagged h4-1BBL cross-linked with an Fc (from UniProt P41273 71-254) (ligand)” as the substance, how does the luciferase expression by Jurkat-h4-1BB reporter cells (4-1BB Bioassay, Promega), reference value read?
A: The luciferase expression by Jurkat-h4-1BB reporter cells (4-1BB Bioassay, Promega), reference value was 1.
